In publication PMC10870823 (mBio, 2023) one finds Kd data, which are given here for one molecule.

The target in this test is T1, SARS-CoV-2 (Wuhan / WA-1) Spike RBD-mouse IgG2a Fc fusion protein (SARS-CoV-2, UniProt P0DTC2).
T1 construct: source: recombinant, purified
The experiment in a line: BLI. Particulars: both partners purified.

B1: FG-10A3 (Family G clone 10A3) human anti-SARS-CoV-2 Spike RBD monoclonal antibody (antibody, V domains shown)
VH: QVQLVESGGGVVQPGRSLRLSCAASGFTFSSYGMNWVRQAPGKGLEWVAIIWYDGNNTYYVDSVKGRFTISRDNSKNTLYLQMNSLRAEDTAVYYCARKDGSKTYYGYYFDYWGQGTLVTVSS
VL: DIQMTQSPSSLSASVGDRVTITCRASQSIHSFLNWYQQKPGKPPNLLIYAASSLQSGLPSRFSGSGSGTDFTLTISSLQPEDFATYYCQQSYITPPTFGHGTKVEIK
notes: also called Family G (FG)-10A3
Regarding B1, the Kd (as a rule, a measure of binding affinity in units of concentration) is 125 pM.
